The target in one data set is TtCST Ctc1 F264A/Y268A (Tetrahymena, UniProt A0PGB2;Q6JXI5;D2CVN7;D2CVN8 1-622;1-373;1-164;1-422, F264A;Y268A). Put plainly: EMSA. For orientation: Mobility shift assays separate free from complexed probe on a gel.
The target in data set [1] is TtCST Ctc1 R395E/Y445A/F473A (Tetrahymena, UniProt A0PGB2;Q6JXI5;D2CVN7;D2CVN8 1-622;1-373;1-164;1-422, R395E;Y445A;F473A). The experiment in a line: EMSA.

This note sets out measurements from paper PMC9728385.

What is called Kd is a measure of binding affinity in units of concentration. A higher Kd goes with a looser complex.

Sequence of TtCST Ctc1 R395E/Y445A/F473A (A0PGB2 whole entry R395E/Y445A/F473A, chain 1 of 4): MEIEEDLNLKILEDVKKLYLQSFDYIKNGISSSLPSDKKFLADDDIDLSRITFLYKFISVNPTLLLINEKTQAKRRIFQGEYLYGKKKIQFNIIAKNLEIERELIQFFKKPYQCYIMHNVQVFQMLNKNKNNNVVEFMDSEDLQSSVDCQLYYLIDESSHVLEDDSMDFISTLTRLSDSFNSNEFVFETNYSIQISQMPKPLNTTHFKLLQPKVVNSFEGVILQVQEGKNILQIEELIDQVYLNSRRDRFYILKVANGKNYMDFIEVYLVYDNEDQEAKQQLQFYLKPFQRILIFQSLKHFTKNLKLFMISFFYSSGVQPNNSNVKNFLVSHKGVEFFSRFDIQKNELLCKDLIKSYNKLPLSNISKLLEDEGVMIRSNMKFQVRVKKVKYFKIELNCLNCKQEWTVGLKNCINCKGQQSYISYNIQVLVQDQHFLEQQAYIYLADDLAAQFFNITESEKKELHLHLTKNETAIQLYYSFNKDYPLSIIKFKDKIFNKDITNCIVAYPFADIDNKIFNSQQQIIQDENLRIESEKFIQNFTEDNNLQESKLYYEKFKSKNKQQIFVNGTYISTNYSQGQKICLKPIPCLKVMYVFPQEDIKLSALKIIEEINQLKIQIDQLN
Sequence of TtCST Ctc1 R395E/Y445A/F473A (Q6JXI5 whole entry, chain 2 of 4): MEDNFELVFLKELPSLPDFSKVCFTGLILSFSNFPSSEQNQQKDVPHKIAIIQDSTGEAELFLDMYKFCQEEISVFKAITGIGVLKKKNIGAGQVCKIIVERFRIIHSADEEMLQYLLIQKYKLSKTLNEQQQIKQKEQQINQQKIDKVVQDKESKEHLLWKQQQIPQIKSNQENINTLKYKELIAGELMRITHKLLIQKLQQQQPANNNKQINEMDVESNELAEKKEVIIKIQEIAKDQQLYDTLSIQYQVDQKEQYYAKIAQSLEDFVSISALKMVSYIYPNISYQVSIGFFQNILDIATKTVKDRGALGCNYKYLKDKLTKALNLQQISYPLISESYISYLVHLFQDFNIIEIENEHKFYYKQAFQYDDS
Sequence of TtCST Ctc1 R395E/Y445A/F473A (D2CVN7 whole entry, chain 3 of 4): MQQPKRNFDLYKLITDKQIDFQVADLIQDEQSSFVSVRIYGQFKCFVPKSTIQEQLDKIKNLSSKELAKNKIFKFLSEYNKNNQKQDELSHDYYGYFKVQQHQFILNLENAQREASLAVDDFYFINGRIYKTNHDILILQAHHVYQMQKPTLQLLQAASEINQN
Sequence of TtCST Ctc1 R395E/Y445A/F473A (D2CVN8 whole entry, chain 4 of 4): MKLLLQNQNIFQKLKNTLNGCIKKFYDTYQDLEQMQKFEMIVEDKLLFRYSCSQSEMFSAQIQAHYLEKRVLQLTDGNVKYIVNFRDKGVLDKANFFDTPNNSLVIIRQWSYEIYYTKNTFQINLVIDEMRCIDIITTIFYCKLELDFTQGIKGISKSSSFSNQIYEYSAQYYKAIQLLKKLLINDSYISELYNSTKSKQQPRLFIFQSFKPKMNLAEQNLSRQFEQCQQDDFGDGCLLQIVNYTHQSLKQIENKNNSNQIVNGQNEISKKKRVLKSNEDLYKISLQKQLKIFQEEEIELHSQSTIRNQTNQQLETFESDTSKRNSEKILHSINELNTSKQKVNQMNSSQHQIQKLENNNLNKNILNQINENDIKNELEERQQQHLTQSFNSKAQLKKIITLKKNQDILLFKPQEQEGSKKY
Sequence of TtCST Ctc1 F264A/Y268A (A0PGB2 whole entry F264A/Y268A, chain 1 of 4): as the sequence (A0PGB2 whole entry R395E/Y445A/F473A, chain 1 of 4) above, with F264A, Y268A, E395R, A445Y, A473F counted along it
Sequence of TtCST Ctc1 F264A/Y268A (Q6JXI5 whole entry, chain 2 of 4): as the sequence (Q6JXI5 whole entry, chain 2 of 4) above
Sequence of TtCST Ctc1 F264A/Y268A (D2CVN7 whole entry, chain 3 of 4): as the sequence (D2CVN7 whole entry, chain 3 of 4) above
Sequence of TtCST Ctc1 F264A/Y268A (D2CVN8 whole entry, chain 4 of 4): as the sequence (D2CVN8 whole entry, chain 4 of 4) above

For the molecule GTTGGGGTTGGGGTTGGGGTTGGGGTTGGG (ssDNA) [d(GTTGGG)5], in the data set with TtCST Ctc1 F264A/Y268A, the binding signal stood at 1.2 fold weaker Kd than WT. The molecule also yielded a Kd in data set [1] of 520 nM.
